How the values were obtained:
[1] = system: human breast and ovary tumors; assay: Custom gene array, breast and ovary tumors versus normal adjacent tissue; conditions: Table 18
Excerpt: A study has been performed to examine the expression of these genes in a selection of breast and ovary tumors, comparing expression with normal adjacent tissue from the same patient. There is expected to be a large degree of variation between different patients, and the study here contains only 5 patients with a range of diagnoses.
Patients are designated as Letters:
E: person. Diagnosis: ovarian adenocarcinoma. Normal ovarian tissue derived from an age-matched separate individual.
: person. Diagnosis: poorly differentiated adenocarcinoma. Normal ovarian tissue derived from the same individual.
G: person. Diagnosis: moderately-differentiated adenocarcinoma. Normal ovarian tissue derived from the same individual.
H: person. Diagnosis: invasive ductal carcinoma. Normnal breast tissue derived from the same individual.
K: person. Diagnosis: invasive ductal carcinoma. Normal breast tissue derived from the same individual.
Data normalisation was done per-chip to correct for differences in labelling and hybridization efficiency. Per-gene normalisation was done such that the expression values of each gene are relative to the median value of that gene throughout the series of samples. By comparing the expression values under normal (nor) and tumor (turn) for a single patient, differences in expression between the normal and malignant tissue of that patient can be inferred.

[2] = system: primary human cell cultures (11 cell types); assay: Custom gene array, 11 human cell types in normoxia or hypoxia for 6 hr and 18 hr; format: cell-based;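 for mRNA expression level, #1 HY 18 hr: cell type #1 is adipocyte from subcutaneous adult adipose tissue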;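 for mRNA expression level, #1 HY 6 hr: cell type #1 is adipocyte from subcutaneous adult adipose tissue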;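 for mRNA expression level, #1 NO: cell type #1 is adipocyte from subcutaneous adult adipose tissue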;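 for mRNA expression level, #2 HY 18 hr: cell type #2 is fetal cardiomyocyte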;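 for mRNA expression level, #2 HY 6 hr: cell type #2 is fetal cardiomyocyte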;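 for mRNA expression level, #2 NO: cell type #2 is fetal cardiomyocyte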;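 for mRNA expression level, #3 HY 6 hr: cell type #3 is human umbilical vein endothelial cells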;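 for mRNA expression level, #3 NO: cell type #3 is human umbilical vein endothelial cells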;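 for mRNA expression level, #4 HY 18 hr: cell type #4 is adult dermal fibroblast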;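 for mRNA expression level, #4 HY 6 hr: cell type #4 is adult dermal fibroblast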;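 for mRNA expression level, #4 NO: cell type #4 is adult dermal fibroblast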;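 for mRNA expression level, #5 HY 6 hr: cell type #5 is adult hepatocyte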;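 for mRNA expression level, #5 NO: cell type #5 is adult hepatocyte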;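 for mRNA expression level, #6 HY 6 hr: cell type #6 is blood-derived macrophage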;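 for mRNA expression level, #6 NO: cell type #6 is blood-derived macrophage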
In short: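 Values are each gene's expression relative to its median over all cell types and conditions, after per-array normalisation to control genes and merging of replicate arrays. Cells were 11 human types, mostly unmodified primary cultures, kept in normoxia or exposed to hypoxia for 6 hr or 18 hr.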

[3] = system: human macrophages; assay: Custom gene array, macrophages with no cytokines, IL-10 or LPS + IFN, in normoxia and hypoxia; format: cell-based; conditions: Table 15, referenced to the median value of that gene throughout all 6 conditions
Experimental: Macrophages were derived and cultured as described elsewhere in the specification. A total of 6 experimental conditions were analysed, as shown below. Where cells were treated with cytokines or hypoxia (0.1% oxygen), this was for 6 hr. Lipopolysaccharide (LPS) (from E.coli 026:B6; Sigma), gamma Interferon (IFN) and Interleukin-10 (IL-10) were all used at a final concentration of 100 ng/ml. The effect of gamma Interferon and Lipopolysaccharide is to activate macrophages, with a Th1 biased phenotype, as found in many inflammatory conditions. Interleukin-10 is a Th2 cytokine and de-activates macrophages, and suppresses their effector functions.

B1: p1E19 (nucleic acid, listed as Homo Sapiens)
DNA: TTTTTTTTCCTAGTTTCATTAAAGATGGAGTTCATATTTGTTTCTCATATTAATTTTTAAGACAAAAAAAAGCAGAACTGTTTTCACCCATTAAGTTAAAAACTGGAATTTTACCTTTCCAAACTTATTTCCTACCTTGCCCCTTTTCATGTTAATACCATGAACTATTCAGTAATTCTCTTCAAGCTCCATAATTTCCTACTTTCTACTTTTGCTCATTATTTCCATTCCAAGGGAAAGTTCTGTGTGCGTGTCTATTTCTATGTTCAAATTACACCTGTAAGATCCAACTCACAGGGCCATTGCCCTCTAGGGGTCTCTCCTGGATCCACTTCAACAGGAGGTAATTTTATCTNCACCGGATACCATTTCCTCCTTGGACACTTACCTCTTTTANGGGGACTCCCGAGGGTTGAGGGGGNG
modifications: EST array clone; misc_feature 356, 397, 422: n = A,T,C or G
[1]; breast, normal adjacent tissue, patient H
  gene expression level on custom gene array, Breast nor H: 2.38
[1]; breast, normal adjacent tissue, patient K
  gene expression level on custom gene array, Breast nor K: 1.19
[1]; breast, tumor tissue, patient H
  gene expression level on custom gene array, Breast tum H: 2.49
[1]; breast, tumor tissue, patient K
  gene expression level on custom gene array, Breast tum K: 1.78
[1]; ovary, normal adjacent tissue, patient E
  gene expression level on custom gene array, Ovary nor E: 1.00
[1]; ovary, normal adjacent tissue, patient F
  gene expression level on custom gene array, Ovary nor F: 1.38
[1]; ovary, normal adjacent tissue, patient G
  gene expression level on custom gene array, Ovary nor G: 0.20
[1]; ovary, tumor tissue, patient E
  gene expression level on custom gene array, Ovary tum E: 2.04
[1]; ovary, tumor tissue, patient F
  gene expression level on custom gene array, Ovary tum F: 1.30
[1]; ovary, tumor tissue, patient G
  gene expression level on custom gene array, Ovary tum G: 1.19
[2]; cell type #1, hypoxia 6 hr
  mRNA expression level, #1 HY 6 hr: 0.65
[2]; cell type #1, hypoxia 18 hr
  mRNA expression level, #1 HY 18 hr: 0.62
[2]; cell type #1, normoxia
  mRNA expression level, #1 NO: 0.79
[2]; cell type #2, hypoxia 6 hr
  mRNA expression level, #2 HY 6 hr: 2.37
[2]; cell type #2, hypoxia 18 hr
  mRNA expression level, #2 HY 18 hr: 2.99
[2]; cell type #2, normoxia
  mRNA expression level, #2 NO: 2.64
[2]; cell type #3, hypoxia 6 hr
  mRNA expression level, #3 HY 6 hr: 1.61
[2]; cell type #3, hypoxia 18 hr
  mRNA expression level, #3 HY 18 hr: 1.77
[2]; cell type #3, normoxia
  mRNA expression level, #3 NO: 2.10
[2]; cell type #4, hypoxia 6 hr
  mRNA expression level, #4 HY 6 hr: 0.40
[2]; cell type #4, hypoxia 18 hr
  mRNA expression level, #4 HY 18 hr: 0.64
[2]; cell type #4, normoxia
  mRNA expression level, #4 NO: 0.61
[2]; cell type #5, hypoxia 6 hr
  mRNA expression level, #5 HY 6 hr: 0.89
[2]; cell type #5, normoxia
  mRNA expression level, #5 NO: 0.42
[2]; cell type #6, hypoxia 6 hr
  mRNA expression level, #6 HY 6 hr: 0.76
[2]; cell type #6, hypoxia 18 hr
  #6 HY 18 hr (mRNA expression level): 1.08
[2]; cell type #6, normoxia
  mRNA expression level, #6 NO: 0.68
[2]; cell type #7, hypoxia 6 hr
  #7 HY 6 hr (mRNA expression level): 0.50
[2]; cell type #7, hypoxia 18 hr
  #7 HY 18 hr (mRNA expression level): 0.32
[2]; cell type #7, normoxia
  #7 NO (mRNA expression level): 0.41
[2]; cell type #8, hypoxia 6 hr
  #8 HY 6 hr (mRNA expression level): 0.90
[2]; cell type #8, hypoxia 18 hr
  #8 HY 18 hr (mRNA expression level): 0.47
[2]; cell type #8, normoxia
  #8 NO (mRNA expression level): 0.38
[2]; cell type #9, hypoxia 6 hr
  #9 HY 6 hr (mRNA expression level): 1.11
[2]; cell type #9, hypoxia 18 hr
  #9 HY 18 hr (mRNA expression level): 1.17
[2]; cell type #9, normoxia
  #9 NO (mRNA expression level): 1.30
[2]; cell type #10, hypoxia 6 hr
  #10 HY 6 hr (mRNA expression level): 1.52
[2]; cell type #10, hypoxia 18 hr
  #10 HY 18 hr (mRNA expression level): 1.39
[2]; cell type #10, normoxia
  #10 NO (mRNA expression level): 1.29
[2]; cell type #11, hypoxia 6 hr
  #11 HY 6 hr (mRNA expression level): 1.69
[2]; cell type #11, hypoxia 18 hr
  #11 HY 18 hr (mRNA expression level): 1.39
[2]; cell type #11, normoxia
  #11 NO (mRNA expression level): 1.14
[2]; hypoxia/normoxia induction ratio, 6 hr hepatocyte
  HIGHEST FOLD CHANGE IN HYPOXIA (hr hypoxia + cell type): 2.13 (6 hr hepatocyte) fold

B2: p2L23 (nucleic acid, listed as Homo Sapiens)
DNA: GGAGCTGTTTACCCCCACTCTAATAGGGGTTCAATATAAAAAGCCGGCAGAGAGCTGTCCAAGTCAGACGCGCCTCTGCATCTGCGCCAGGCGAACGGGTCCTGCGCCTCCTGCAGTCCCAGCTCTCCACCACCGCCGCGTGCGCCTGCAGACGCTCCGCTCGCTGCCTTCTCTCCTGGCAGGCGCTGCCTTTTCTCCCCGTTAAAGGGCACTTGGGCTGAAGGATCGCTTTGAGATCTGAGGAACCCGCAGCGCTTTGAGGGACCTGAAGCTGTTTTTCTTCGTTTTCCTTTGGGTTCAGTTTGAACGGGAGGTTTTTGATCCCTTTTTTTCAGAATGGATTATTTGCTCATGATTTTCTCTCTGCTGTTTGTGGCTTGCCAAGGAGCTCCAGAAACAGCAGTCTTAGGCGCTGAGCTCAGCGCGGTGGGTGAGAACGGCGGGGAGAAACCCACTCCCAGTCCACCCTGGCGGCTCCGCCGGTCCAAGCGCTGCTCCTGCTCGTCCCTGATGGATAAAGAGTGTGTCTACTTCTGCCACCTGGACATCATTTGGGTCAACACTCCCGAGCACGTTGTTCCGTATGGACTTGGAAGCCCTAGGTCCAAGAGAGCCTTGGAGAATTTACTTCCCACAAAGGCAACAGACCGTGAGAATAGATGCCAATGTGCTAGCCAAAAAGACAAGAAGTGCTGGAATTTTTGCCAAGCAGGAAAAGAACTCAGGGCTGAAGACATTATGGAGAAAGACTGGAATAATCATAAGAAAGGAAAAGACTGTTCCAAGCTTGGGAAAAAGTGTATTTATCAGCAGTTAGTGAGAGGAAGAAAAATCAGAAGAAGTTCAGAGGAACACCTAAGACAAACCAGGTCGGAGACCATGAGAAACAGCGTCAAATCATCTTTTCATGATCCCAAGCTGAAAGGCAAGCCCTCCAGAGAGCGTTATGTGACCCACAACCGAGCACATTGGTGACAGACTTCGGGGCCTGTCTGAAGCCATAGCCTCCACGGAGAGCCCTGTGGCCGACTCTGCACTCTCCACCCTGGCTGGGATCAGAGCAGGAGCATCCTCTGCTGGTTCCTGACTGGCAAAGGACCAGCGTCCTCGTTCAAAACATTCCAAGAAAGGTTAAGGAGTTCCCCCAACCATCTTCACTGGCTTCCATCAGTGGTAACTGCTTTGGTCTCTTCTTTCATCTGGGGATGACAATGGACCTCTCAGCAGAAACACACAGTCACATTCGAATTC
[3]; #1 no cytokines/normoxia
  mRNA EXPRESSION (experimental condition) #1: 1.02
[3]; #2 no cytokines/hypoxia
  mRNA EXPRESSION (experimental condition) #2: 0.62
[3]; #3 IL-10/normoxia
  mRNA EXPRESSION (experimental condition) #3: 0.74
[3]; #4 IL-10/hypoxia
  mRNA EXPRESSION (experimental condition) #4: 0.50
[3]; #5 LPS/IFN/normoxia
  mRNA EXPRESSION (experimental condition) #5: 11.4
[3]; #6 LPS/IFN/hypoxia
  mRNA EXPRESSION (experimental condition) #6: 10.1

Reference: patent US20030203372A1, “Analysis method” (priority 2000, published 2003)
